The record followed here is paper PMC5721652, “Nanobodies targeting conserved epitopes on the major outer membrane protein of Campylobacter as potential tools for control of Campylobacter colonization” (Veterinary Research, 2017).

B1: Nb5, His-tagged (VHH)
VHH: QVQLQESGGGLVQAGGSLRLSCAASGTIISLNSMGWYRQAPGKQRELVAALTSGGTTNYADSVKGRFTISRVNAKNTVYLQMNSLKPEDTAVYYCNAKLITTAQGMVLASWGQGTQVTVSS
notes: Cloned in pHen6C; one of the six nanobodies with broad specificity; also called anti-Campylobacter nanobody; not shown: His-tag, C-terminal, kept
B2: Nb24, His-tagged (VHH)
VHH: QVQLQESGGGLVQPGGSLRLSCAASGRTFSRFSDNYVMGWFRQAPGKEREVVGAIRWSVASTYYADFVKGRFTISRDSAMNTMYLQMNNLKPEDTAVYYCATKFSGPINGGQTSYNYWGQGTQVTVSS
notes: as for B1
B3: Nb23, His-tagged (VHH)
VHH: QVQLQESGGGLVQPGGSLRLSCAASGTIDNFNGMGWYRQAPGKQREWLARITMNGRTIYAESVEGRFTISRDKVKNTLALQMNSLKPEDTAVYYCNARGVLTPRGIHDYWGQGTQVTVSS
notes: as for B1
B4: Nb49, His-tagged (VHH)
VHH: QVQLQESGGGLVQPGWSLRLSCAASSIFEINAMGWYRQPPGKQRERVATITDGFGTNYADSVKGRFTISRDNAKNTVYLQMNSLRPEDTAVYYCSAQRTVPYKMTYWGQGTQVTVSS
notes: as for B1
B5: Nb48, strep-tagged (VHH)
VHH: QVQLQESGGGSVQAGESLRLACAASGSILSINIMRWYRQAPGKQRELVATIGRSGNTDLADFAKGRFTGSRDNGKNTVYLQMNNLKPEDTAVYYCNALLTTLSAQTGVYWGQGTQVTVSS
notes: as the VHH of m12; also called strep-tagged Nb48; source: E. coli, purified (StrepTrap HP); not shown: strep-tag, C-terminal, kept
B6: Nb34, strep-tagged (VHH)
VHH: QVQLQESGGGLVQAGGSLRLSCAASGRTSSSYAMGWFRQAPGKEREFVTAISWNGSKAYYSDSVKGRFTISRDNAKNTVYLQMNSLKPEDTAVYYCAQGAYRVVADPGEYDYWGQGTQVTVSS
notes: as the VHH of m10; also called strep-tagged Nb34; source: E. coli, purified (StrepTrap HP); not shown: strep-tag, C-terminal, kept
B7: Nb24, strep-tagged (VHH)
VHH: B2 VHH
notes: as the VHH of m5; also called strep-tagged Nb24; source: E. coli, purified (StrepTrap HP); not shown: strep-tag, C-terminal, kept
B8: Nb23, strep-tagged (VHH)
VHH: B3 VHH
notes: as the VHH of m4; also called strep-tagged Nb23; source: E. coli, purified (StrepTrap HP); not shown: strep-tag, C-terminal, kept
B9: Nb5, strep-tagged (VHH)
VHH: B1 VHH
notes: as the VHH of m2; the printed oligo encodes the tag directly after the end of the nanobody; also called strep-tagged Nb5; source: E. coli, purified (StrepTrap HP); not shown: strep-tag, C-terminal, kept
B10: Nb15, strep-tagged (VHH)
VHH: QVQLQESGGGLVQPGGSLRLSCAASGRTFRSYDMGWFRQAPGKEREFVAASAWSAGRTIYKNSVKGRFTISRDNTKDTMYLQMNDLKPEDTAVYFCAADRNPPPIYNEFYYYRASAYDYWGQGTQVTVSS
notes: as the VHH of m8; also called strep-tagged Nb15; source: E. coli, purified (StrepTrap HP); not shown: strep-tag, C-terminal, kept
B11: Nb45, strep-tagged (VHH)
VHH: QVQLQESGGGLVQAGGSLRLACVASSTIFSINNMAWYRQAPGKQRELVARITAGGNTNYADSVKGRFTISKDKGKNTVRLQMNSLKPEDTGVYYCKCGGCGTPYSLSEDYWGQGTQVTVSS
notes: as the VHH of m11; also called strep-tagged Nb45; source: E. coli, purified (StrepTrap HP); not shown: strep-tag, C-terminal, kept
B12: Nb49, strep-tagged (VHH)
VHH: B4 VHH
notes: as the VHH of m6; also called strep-tagged Nb49; source: E. coli, purified (StrepTrap HP); not shown: strep-tag, C-terminal, kept
B13: Nb63, strep-tagged (VHH)
VHH: QVQLQESGGGLVQPGGSLRLSCVASGSTFAINVMGWYRRAPGKQRELVATVTSGSTTYSRVRSSDTTYADSVKGRFTISRDNAKNMVYLQMNSLKPEDTAVYYCNARTRNTIATSDGMDYWGKGTQVTVSS
notes: as the VHH of m13; also called strep-tagged Nb63; source: E. coli, purified (StrepTrap HP); not shown: strep-tag, C-terminal, kept
B14: Nb32, strep-tagged (VHH)
VHH: QVQLQESGGGLVQAGDSLRLSCAASGGTFSNYVLGWFRQAPGKEREFVAAIRWSGERTYYADSVKGRFTISSDNAKYRQVTVYLEMNSLKPEDTAVYYCAARAPNYYSDSQPPVTLSEYKVWGQGTQVTVSS
notes: as the VHH of m9; also called strep-tagged Nb32; source: E. coli, purified (StrepTrap HP); not shown: strep-tag, C-terminal, kept
B15: Nb48, His-tagged (VHH)
VHH: B5 VHH
notes: One of the six nanobodies with less broad specificity; its name is printed only in the legend of Additional file 5; also called anti-Campylobacter nanobody; not shown: His-tag, C-terminal, kept
B16: Nb34, His-tagged (VHH)
VHH: B6 VHH
notes: One of the six nanobodies with less broad specificity; also called anti-Campylobacter nanobody; not shown: His-tag, C-terminal, kept
B17: Nb15, His-tagged (VHH)
VHH: B10 VHH
notes: as for B15
B18: Nb45, His-tagged (VHH)
VHH: B11 VHH
notes: as for B16
B19: Nb63, His-tagged (VHH)
VHH: B13 VHH
notes: as for B15
B20: Nb32, His-tagged (VHH)
VHH: B14 VHH
notes: as for B16
B21: Nb84, fluorescently labelled (VHH)
VHH: QVQLQESGGGLVQAGGSLRLSCKASGTIISINNMGWYRRSPGKERDMVARIFSSGTINYTDSVKGRFTISRDNAKNTVYLEMNSLKPEDTAIYYCNARLTTTAMGTIPNSWGQGTQVTVSS
notes: as the VHH of m7; probably the C-terminally His-tagged one; also called fluorescently labelled Nb84; labelled Nb84; source: E. coli, purified; labelled with Dylight 650 NHS Ester
B22: Nb22, fluorescently labelled (VHH)
VHH: QVQLQESGGGLVQPGGSLRLSCAVSRTIFNFNNMGWYRQPPGKPRELVARITMNGRTDYADPVKGRFTISRDSAKNTLALQMNDLKGDDTAVYYCAARGAVRTGNLMPTDYWGQGTQVTVSS
notes: as the VHH of m3; probably the C-terminally His-tagged one; also called fluorescently labelled Nb22; source: E. coli, purified; labelled with Dylight 650 NHS Ester

One assay concerns the target T1, major outer membrane protein (MOMP) of Campylobacter jejuni KC40 (Campylobacter jejuni KC40 (stand-in: …, UniProt P80672, strain)).
T1 construct: major outer membrane protein (MOMP, porA) of C. jejuni strain KC40; the printed entry P80672 is that of strain NCTC 11168, to which the peptides of the pull-down matched; The legends call the purified protein a MOMP monomer; the introduction describes MOMP as a trimeric porin; Kept in 0.6% octyl-POE after purification; also called purified MOMP monomer; native MOMP; source: purified from C. …
Briefly: pull-down; His-tagged nanobody (20 µL of 1.0 mg/mL) mixed with 500 µL outer membrane proteins of C. jejuni KC40 (1.2 mg/mL), 2 h at 4 °C, captured overnight at 4 °C on Co2+-coated Dynabeads; eluted band cut from a silver-stained gel and identified by LC-MS/MS. Conditions: one partner purified.
For B1, the binding result is given as “binds”.

The next assay concerns the target T1, major outer membrane protein (MOMP) of …. Briefly: far-Western, overlay or dot blot; purified MOMP run on a non-denaturing gel, transferred to PVDF, incubated with 5 µg/mL His-tagged nanobody for 1 h at 4 °C, detected with anti-Histidine tag antibody. Conditions: both partners purified.
As for B2, the binding result is reported as “binds”. With B3, the binding result is recorded as “binds”.

As to B4, the binding result was “binds”.

Another assay shares this target. Kind of assay: ELISA; competition: MOMP coated at 1 µg/mL; serial dilutions of strep-tagged nanobody and a constant 5 x 10^-2 µg/mL of His-tagged Nb84 added simultaneously; bound His-tagged Nb84 detected with anti-Histidine tag antibody. The following applies: both partners purified.
Take B5: the binding result is listed as “binds”. Take B6: the binding result is recorded as “binds”.

With B7, the binding result is “binds”.

Regarding B8, the binding result was “binds”.

Consider B9, for which the binding result is “binds”.

As to B10, the binding result was “binds”.

On to B11, for which the binding result is reported as “binds”. With B12, the binding result is listed as “binds”.

B13: the binding result is “binds”. In the case of B14, the binding result is on record as “binds”.

The next assay shares this target. Kind of assay: ELISA; purified MOMP coated at 1 µg/mL; His-tagged nanobody at 50 µg/mL, or tenfold serial dilutions of His-tagged Nb84 (saturation binding); detected with anti-Histidine tag antibody. The following applies: both partners purified. Background: ELISA stands for enzyme-linked immunosorbent assay.
As to B15, the binding result is listed as “binds”. On the same count and under the same terms, under B16 stands “binds”. Still for that read-out and setting: in the case of B17 it was “binds”; in that of B18, “binds”; in that of B19, “binds”. Consider B20, for which the binding result is reported as “binds”.

The next assay shares this target. Briefly: MST; saturation: Dylight 650 labelled nanobody constant at 32 nM, twofold serial dilutions of MOMP from 0.3 nM to 5.0 µM; 20 mM sodium phosphate pH 7.6, 150 mM NaCl, 0.6% octyl-POE. Conditions: both partners purified.
By Kd is commonly meant a measure of binding affinity in units of concentration. A low value points to a tighter complex. In the case of B21, the Kd was 422 ± 159 nM. Regarding B22, the Kd came out at 118 ± 48 nM.
